Results reported in patent publication US20260234242A1 (HAINAN SIMCERE ZAIMING PHARMACEUTICAL, published 2026).

What was measured:
[1] = target: T1, his-tagged human CDH6 extracellular region protein (hCDH6 ECD-his) (human, UniProt P55285 19-615); test: ELISA, coated antigen
T1 construct: also called Human CDH6-his; hCDH6-his; not shown: his tag
T1 sequence: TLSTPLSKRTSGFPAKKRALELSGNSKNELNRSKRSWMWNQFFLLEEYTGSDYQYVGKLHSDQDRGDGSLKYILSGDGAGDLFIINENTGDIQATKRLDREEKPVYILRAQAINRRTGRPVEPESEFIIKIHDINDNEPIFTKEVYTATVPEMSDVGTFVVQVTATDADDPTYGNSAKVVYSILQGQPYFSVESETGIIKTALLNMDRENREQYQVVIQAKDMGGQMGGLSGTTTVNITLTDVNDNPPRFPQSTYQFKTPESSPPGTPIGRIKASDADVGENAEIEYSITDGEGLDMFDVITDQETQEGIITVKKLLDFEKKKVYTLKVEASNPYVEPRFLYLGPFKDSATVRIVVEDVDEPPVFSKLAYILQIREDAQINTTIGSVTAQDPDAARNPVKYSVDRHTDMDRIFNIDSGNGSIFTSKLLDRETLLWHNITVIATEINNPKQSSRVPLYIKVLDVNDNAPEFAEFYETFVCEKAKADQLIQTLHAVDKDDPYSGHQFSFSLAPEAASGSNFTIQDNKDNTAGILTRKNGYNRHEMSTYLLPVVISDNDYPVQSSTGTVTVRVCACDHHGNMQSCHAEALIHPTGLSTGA

[2] = target: T2, human CDH6 with EC3 removed, on HEK293T cells (HEK293T-hCDH6-EC3 deletion) (human, UniProt P55285 54-790); test: FACS, HEK293T-hCDH6-EC3 deletion cells
T2 construct: Signal peptide not removed here
T2 sequence: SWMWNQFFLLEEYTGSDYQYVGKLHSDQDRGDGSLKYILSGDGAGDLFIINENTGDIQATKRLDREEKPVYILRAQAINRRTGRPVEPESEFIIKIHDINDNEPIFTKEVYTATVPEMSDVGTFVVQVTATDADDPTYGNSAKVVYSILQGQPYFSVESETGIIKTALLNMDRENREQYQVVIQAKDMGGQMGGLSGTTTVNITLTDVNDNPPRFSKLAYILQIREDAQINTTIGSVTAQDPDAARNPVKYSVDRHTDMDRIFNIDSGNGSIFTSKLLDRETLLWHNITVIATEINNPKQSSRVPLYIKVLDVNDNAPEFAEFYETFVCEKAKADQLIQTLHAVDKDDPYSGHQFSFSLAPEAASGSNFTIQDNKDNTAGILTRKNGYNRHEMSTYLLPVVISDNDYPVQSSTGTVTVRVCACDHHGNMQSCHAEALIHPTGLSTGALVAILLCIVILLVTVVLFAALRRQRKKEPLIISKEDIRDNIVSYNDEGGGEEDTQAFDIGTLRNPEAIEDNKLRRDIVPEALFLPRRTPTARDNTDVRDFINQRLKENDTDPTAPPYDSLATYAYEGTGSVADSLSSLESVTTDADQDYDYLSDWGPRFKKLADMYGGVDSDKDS
Description: To confirm the binding epitope of the CDH6 antibody, the sequences after removal of these 5 regions were constructed into pcDNA3.1 vectors (purchased from Youbio, Cat. No. VT1001), and transfected into HEK293T cells (purchased from Cell Bank of Chinese Academy of Sciences, Cat. No. SCSP-502) to obtain 5 CDH6 truncated cell lines: HEK293T-hCDH6-EC1 deletion, HEK293T-hCDH6-EC2 deletion, HEK293T-hCDH6-EC3 deletion, HEK293T-hCDH6-EC4 deletion, and HEK293T-hCDH6-EC5 deletion.
The binding activity of the CDH6 chimeric antibodies to these 5 cell lines was assayed by FACS.

Binder | EC50 [1] [nM] | Max OD450 [1] [OD450] | Max MFI [2] [MFI] | binding result [2]
CHI-CDH6-1 (antibody, human IgG1, kappa, V domains shown, also called CHI-hCDH6-1; CH1-CDH6-1) VH: QVQLQQPGAELVRPGSSVKLSCKASGYTFTNYWMHWVKQRPIEGLEWIGDIDPSHSETHYTQKFKDKATLTVDKSSSTAYMQLSSLTSEDSAVYYCARGDLGRFDYWGQGTTLTVSS VL: DIVLTQSPASLAVSLGQRATISCRASESVSIHGTHLMHWYQQKSGQPPKLLIYAASNLESGVPARFSGSGSETDFTFNIHPVEEEDAATYFCQQSFEDPWTFGGGTKLEIKR | 0.04 | 2.23 | 18000 | –
NOV0712 (antibody, human IgG1, kappa, V domains shown, Positive control, variable regions from WO2018212136A1; also called positive control anti-human CDH6 antibody) VH: QVQLLESGGGLVQPGGSLRLSCAASGFTFSSHGMHWVRQAPGKGLEWVSVISGSGSNTGYADSVKGRFTISRDNSKNTLYLQMNSLRAEDTAVYYCARQWGSYAFDSWGQGTLVTVSS VL: DIQMTQSPSSLSASVGDRVTITCRASQSISSYLNWYQQKPGKAPKLLIYAVSTLQSGVPSRFSGSGSGTDFTLTISSLQPEDFATYYCQQSGTFPPTTFGQGTKVEIKR | 0.043 | 2.32 | 16300 | –
DS-H01L02 (antibody, human IgG1, kappa, V domains shown, Positive control, variable regions from WO2018212136A1; also called positive control anti-human CDH6 antibody) VH: EVQLVQSGAEVKKPGASVKVSCKASGYTFTRNFMHWVRQAPGQGLEWMGWIYPGDGETEYAQKFQGRVTITADTSTSTAYMELSSLRSEDTAVYYCARGVYGGFAGGYFDFWGQGTLVTVSS VL: DIQMTQSPSSLSASVGDRVTITCKASQNIYKNLAWYQQKPGKAPKLLIYDANTLQTGVPSRFSGSGSGSDFTLTISSLQPEDFATYFCQQYYSGWAFGQGTKVEIKR | – | – | – | no binding (tested: MFI ~1.5 times that of hIgG1 (65))
